Laboratory results: the supplement of paper PMC12042874
± gives the uncertainty stated by the source.

assay: amyloid nucleation score (Sup35N fusion, yeast selection) (log enrichment); library NNK1; higher = more nucleation; inactive = no reads after selection
Method in brief: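 Peptides of 20 random codons fused to Sup35N were expressed in psi-negative yeast, induced 24 hours with 100 μM copper sulfate, then grown 7 days at 30°C on medium lacking adenine and uracil. Input and output plasmid inserts were Illumina-sequenced. Nucleation score is the DiMSum log enrichment of output over input reads, centred on the mode score of non-aggregating sequences, excluding sequences with under 100 input reads. Random libraries had three technical output replicates.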

Q: Which amyloid nucleation score does the source give for FKYSFMIYNLARSVCYCTVS here?
A: -0.002 ± 1.4

Q: Which amyloid nucleation score does the source give for FKYSGRCWGANECIKNYNYV here?
A: 0.07 ± 0.39

Q: Which amyloid nucleation score does the source give for FLCVF here?
A: 0.097 ± 0.88

Q: For FLFLPVSVSYYEDDSGHVLC, which amyloid nucleation score is on record?
A: inactive

Q: With FLGLLVPFFNWRDKKRKYSG as the substance, how does the amyloid nucleation score read?
A: 0.012 ± 0.79

Q: Which amyloid nucleation score does the source give for FLGPIAIVGRHLMICIMQSH here?
A: 0.855 ± 0.43

Q: With FLKLPFTKSSWSF as the substance, how does the amyloid nucleation score read?
A: -0.317 ± 1.4

Q: Which amyloid nucleation score does the source give for FLKSYLLRC here?
A: 0.012 ± 0.63

Q: For FLLAPTLL, which amyloid nucleation score is on record?
A: -0.367 ± 1

Q: Which amyloid nucleation score does the source give for FLLDMV here?
A: -0.175 ± 0.45

Q: With FLLLAC as the substance, how does the amyloid nucleation score read?
A: 0.197 ± 0.9

Q: For FLLLTSMNPLEWTYGRFWGV, which amyloid nucleation score is on record?
A: -0.597 ± 0.72

Q: For FLLNSPQNASYSPHRRLAFD, which amyloid nucleation score is on record?
A: -1.38 ± 0.92

Q: For FLNFPYMLRDCLMIRFIELE, which amyloid nucleation score is on record?
A: inactive

Q: Which amyloid nucleation score does the source give for FLPMSLGWVHKQLIFSPRWY here?
A: 1 ± 0.66

Q: With FLPWVLFFSQ as the substance, how does the amyloid nucleation score read?
A: 0.816 ± 0.62

Q: For FLRCRFLYQQ, which amyloid nucleation score is on record?
A: 0.4 ± 0.39

Q: Which amyloid nucleation score does the source give for FLRHLSSCCHLATLCVDWGA here?
A: -0.103 ± 1.4

Q: Which amyloid nucleation score does the source give for FLRNNKIPVVFFSPS here?
A: inactive

Q: Which amyloid nucleation score does the source give for FLSRCGWAYVMV here?
A: -0.493 ± 0.26

Q: For FLSSCDGGLIGMHGTGFTAQ, which amyloid nucleation score is on record?
A: 0.426 ± 0.45

Q: Which amyloid nucleation score does the source give for FLSYYTCILFPGDMHGSYLS here?
A: 7.226 ± 0.055

Q: With FLTFKMN as the substance, how does the amyloid nucleation score read?
A: inactive

Q: With FLTTLGWSYHRQNQLRMPRF as the substance, how does the amyloid nucleation score read?
A: 2.24 ± 0.16

Q: Which amyloid nucleation score does the source give for FLVHSTGGHVNISFTSVIYL here?
A: 7.889 ± 0.048

Q: Which amyloid nucleation score does the source give for FLYPVHLVLHCSTSYMQTDS here?
A: 0.241 ± 1.2

Q: Which amyloid nucleation score does the source give for FLYRSYVNIGLGGANISNLV here?
A: 4.3 ± 0.12

Q: Which amyloid nucleation score does the source give for FMAGNFSFFLRRNA here?
A: inactive

Q: With FMDMDRLMSRGLQVNKGVML as the substance, how does the amyloid nucleation score read?
A: -0.228 ± 0.68

Q: Which amyloid nucleation score does the source give for FMDWIVSCGKCKIGSYYLCI here?
A: -0.388 ± 0.29

Q: With FMLWCQFKRDNIKRTDRLAV as the substance, how does the amyloid nucleation score read?
A: 1.46 ± 0.78

Q: With FMSEDESYVCYRWGWYDRIF as the substance, how does the amyloid nucleation score read?
A: -0.919 ± 1

Q: With FMSYFVPSQQYLTASSRQKT as the substance, how does the amyloid nucleation score read?
A: -0.544 ± 1.1

Q: With FMVLDQFIE as the substance, how does the amyloid nucleation score read?
A: 0.383 ± 0.95

Q: With FMYSKPVI as the substance, how does the amyloid nucleation score read?
A: -0.314 ± 0.78

Q: With FNDGYSVAEA as the substance, how does the amyloid nucleation score read?
A: 0.998 ± 0.48

Q: For FNFCHE, which amyloid nucleation score is on record?
A: -0.392 ± 0.6

Q: Which amyloid nucleation score does the source give for FNFRSS here?
A: -0.618 ± 0.72

Q: For FNIAALSEYCGPLKSNAHW, which amyloid nucleation score is on record?
A: -0.27 ± 0.64

Q: Which amyloid nucleation score does the source give for FNIYSQMYIW here?
A: 5.32 ± 0.066

Q: With FNKYYMFEST as the substance, how does the amyloid nucleation score read?
A: -0.038 ± 0.33

Q: Which amyloid nucleation score does the source give for FNLALDRGR here?
A: -0.062 ± 0.32

Q: With FNLATIPISQFITPNSPLLR as the substance, how does the amyloid nucleation score read?
A: -0.091 ± 1.1

Q: For FNLGSGDWL, which amyloid nucleation score is on record?
A: -0.842 ± 0.65

Q: Which amyloid nucleation score does the source give for FNSFCFQNVTLW here?
A: inactive

Q: With FNVHNWAQRTVEHGETLFRD as the substance, how does the amyloid nucleation score read?
A: 1.57 ± 0.45

Q: Which amyloid nucleation score does the source give for FNYFVLFSLSFSTVFSFNDT here?
A: 3.37 ± 0.081

Q: Which amyloid nucleation score does the source give for FNYFYVLYS here?
A: 5.35 ± 0.074

Q: For FNYYSA, which amyloid nucleation score is on record?
A: -0.012 ± 0.48

Q: For FPDLYVWRCWKSQGHSWHGV, which amyloid nucleation score is on record?
A: 0.573 ± 0.52

Q: With FPGSRDPGVNRSWSYNSIDT as the substance, how does the amyloid nucleation score read?
A: 1.87 ± 0.14

Q: Which amyloid nucleation score does the source give for FQAQWNLSTCPNAFCLFLIR here?
A: 5.82 ± 0.059

Q: For FQDLSLAVSQCLPCVIIGDC, which amyloid nucleation score is on record?
A: -0.131 ± 0.44

Q: For FQGTIR, which amyloid nucleation score is on record?
A: 0.193 ± 1

Q: Which amyloid nucleation score does the source give for FQSSNSSYITIHYCLVGRFT here?
A: 6.013 ± 0.048

Q: With FQYEWNLVIW as the substance, how does the amyloid nucleation score read?
A: -0.074 ± 0.4

Q: Which amyloid nucleation score does the source give for FRCGKGVVMSYELVNSIVGS here?
A: 0.407 ± 0.76

Q: For FRDCLLVRYLCNVLTGDCTH, which amyloid nucleation score is on record?
A: 1.94 ± 0.52

Q: With FRGTVFSW as the substance, how does the amyloid nucleation score read?
A: -0.26 ± 0.69

Q: Which amyloid nucleation score does the source give for FRIRRGKRSVHTVNFAFAEV here?
A: 0.583 ± 0.8

Q: With FRLLRSK as the substance, how does the amyloid nucleation score read?
A: 0.644 ± 0.56

Q: For FRMRHQERMAGTPVGMGLYC, which amyloid nucleation score is on record?
A: -0.327 ± 0.69

Q: With FRRHYNKMNFFVGFRERMCG as the substance, how does the amyloid nucleation score read?
A: -0.262 ± 0.49

Q: With FRRLHRYRWDNECLGMQVGS as the substance, how does the amyloid nucleation score read?
A: -1.48 ± 2.1

Q: Which amyloid nucleation score does the source give for FRRLMLWSCSV here?
A: -0.098 ± 1.3

Q: Which amyloid nucleation score does the source give for FRSVVWRLHTFY here?
A: -0.075 ± 0.5

Q: Which amyloid nucleation score does the source give for FRTRGFLHSKVLVRLQYWIK here?
A: 0.494 ± 0.5

Q: For FRVQVTYIFRSLEICDPTVG, which amyloid nucleation score is on record?
A: inactive

Q: Which amyloid nucleation score does the source give for FRYGYLFKLSNVWIDDMLRR here?
A: 1.96 ± 0.55

Q: Which amyloid nucleation score does the source give for FRYYRF here?
A: 0.522 ± 0.45

Q: Which amyloid nucleation score does the source give for FSACLSNIYD here?
A: inactive

Q: For FSCSTCNVCNERHPEVFTYD, which amyloid nucleation score is on record?
A: 1.15 ± 0.51

Q: For FSIKHPLSSGSKISCVA, which amyloid nucleation score is on record?
A: -1.23 ± 1.7

Q: Which amyloid nucleation score does the source give for FSKVGCDKVIRPGKVPFRSF here?
A: 0.491 ± 0.9

Q: For FSLRDISNISIWAYLNQPCR, which amyloid nucleation score is on record?
A: -0.341 ± 0.32

Q: For FSMVAESRIEGILRFS, which amyloid nucleation score is on record?
A: 0.409 ± 0.22

Q: For FSNAIKQVFQGYLWTNPW, which amyloid nucleation score is on record?
A: -0.188 ± 0.3

Q: For FSQYVGDFYILMRVSFEFMK, which amyloid nucleation score is on record?
A: 0.033 ± 0.44

Q: Which amyloid nucleation score does the source give for FSRFLYEYGCGELVATFLPW here?
A: 0.517 ± 0.24

Q: With FSRSWGDCIGERCGVV as the substance, how does the amyloid nucleation score read?
A: 0.307 ± 0.38

Q: With FSSYPLGFRNRRDTVDMTIV as the substance, how does the amyloid nucleation score read?
A: 0.018 ± 0.38

Q: Which amyloid nucleation score does the source give for FSTGNPWVD here?
A: -0.342 ± 0.8

Q: Which amyloid nucleation score does the source give for FSVKFVSNPFSQLLSARPWW here?
A: -0.603 ± 0.34

Q: For FSVWGLRLTRARMQTERVLL, which amyloid nucleation score is on record?
A: 0.86 ± 0.59

Q: With FTALPSTVVIVQHTLHLDSF as the substance, how does the amyloid nucleation score read?
A: 6.48 ± 0.066

Q: For FTCRFFVCFGLCGDHEHSPI, which amyloid nucleation score is on record?
A: 7.561 ± 0.057
